Measurements as given in PMC12362098, “Dimerization of Cdc13 is essential for dynamic DNA exchange on telomeric DNA” (The Journal of Biological Chemistry, 2025).
Residue numbers refer to the chain shown, from its start.

Key:
[1] = target: the molecule itself; experiment: mass photometry; Cdc13 alone diluted in PBS, 11.25 nM protein, room temperature
[2] = target: T1, Cdc13 WT (Saccharomyces cerevisiae, UniProt P32797 1-924); experiment: competition EMSA (DDE assay); EC50 for displacing 2 nM prebound IR800-Tel30G; 3.75 nM dimer; 30 C; value introduced 'as reported (9)', assay also run here; 25 mM HEPES pH 8.0, 50 mM NaOAc, 150 mM NaCl, 7.5 mM MgCl2 (1x DNA-binding buffer); DDE incubation 30 C, 8% native gel; mass photometry at room temperature after 30 C incubation; BLI buffer details not in material; conditions: protein: recombinant; chain copies: 2; label: 5' IRDye700
T1 sequence: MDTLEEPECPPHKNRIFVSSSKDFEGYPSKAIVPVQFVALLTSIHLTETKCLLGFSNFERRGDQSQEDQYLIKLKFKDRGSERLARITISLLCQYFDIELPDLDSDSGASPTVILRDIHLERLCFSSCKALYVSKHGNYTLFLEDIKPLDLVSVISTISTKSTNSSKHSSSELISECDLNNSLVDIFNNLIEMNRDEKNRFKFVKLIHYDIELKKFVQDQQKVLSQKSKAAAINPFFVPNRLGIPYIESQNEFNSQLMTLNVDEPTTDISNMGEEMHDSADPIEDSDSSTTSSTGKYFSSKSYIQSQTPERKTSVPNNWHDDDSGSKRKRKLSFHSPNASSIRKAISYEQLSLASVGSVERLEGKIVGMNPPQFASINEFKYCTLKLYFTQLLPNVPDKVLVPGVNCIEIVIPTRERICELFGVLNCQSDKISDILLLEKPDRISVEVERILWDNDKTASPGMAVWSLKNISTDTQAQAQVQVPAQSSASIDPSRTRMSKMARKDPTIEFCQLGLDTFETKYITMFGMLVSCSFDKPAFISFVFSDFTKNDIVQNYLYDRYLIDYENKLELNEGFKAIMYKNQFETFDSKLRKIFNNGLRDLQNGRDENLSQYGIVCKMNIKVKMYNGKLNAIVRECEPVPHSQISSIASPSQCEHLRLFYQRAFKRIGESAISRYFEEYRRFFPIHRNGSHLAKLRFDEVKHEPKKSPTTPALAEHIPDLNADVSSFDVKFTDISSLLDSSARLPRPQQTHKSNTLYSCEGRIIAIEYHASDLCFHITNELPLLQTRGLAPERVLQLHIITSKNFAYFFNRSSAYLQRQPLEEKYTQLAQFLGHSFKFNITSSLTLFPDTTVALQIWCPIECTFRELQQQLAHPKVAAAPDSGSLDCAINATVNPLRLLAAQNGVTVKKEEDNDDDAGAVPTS

[3] = target: T2, Cdc13-L91R (Saccharomyces cerevisiae, UniProt P32797 1-924, L91R); experiment: competition EMSA (DDE assay); EC50 for displacing 2 nM prebound IR800-Tel30G; 3.75 nM monomer; 30 C; 25 mM HEPES pH 8.0, 50 mM NaOAc, 150 mM NaCl, 7.5 mM MgCl2 (1x DNA-binding buffer); DDE incubation 30 C, 8% native gel; mass photometry at room temperature after 30 C incubation; BLI buffer details not in material; conditions: protein: recombinant; label: 5' IRDye700
T2 sequence: T1 sequence with L91R

[4] = target: T1, Cdc13 WT; experiment: mass photometry; one and two dimers per ssDNA; binding buffer; 25 mM HEPES pH 8.0, 50 mM NaOAc, 150 mM NaCl, 7.5 mM MgCl2 (1x DNA-binding buffer); DDE incubation 30 C, 8% native gel; mass photometry at room temperature after 30 C incubation; BLI buffer details not in material; conditions: protein: recombinant; chain copies: 2
[5] = target: T2, Cdc13-L91R; experiment: mass photometry; small population with two monomers per ssDNA; binding buffer; 25 mM HEPES pH 8.0, 50 mM NaOAc, 150 mM NaCl, 7.5 mM MgCl2 (1x DNA-binding buffer); DDE incubation 30 C, 8% native gel; mass photometry at room temperature after 30 C incubation; BLI buffer details not in material; conditions: protein: recombinant

B1: Cdc13 (wild type, recombinant) (natural protein, S. cerevisiae, UniProt P32797 1-924, looked up)
chain: T1 sequence
notes: called full-length WT Cdc13 in the text; The vector encodes a 5'-SUMO-His6 tag and a 3'-FLAG tag for purification; The monomer mass seen was ~105 kDa; also called WT Cdc13
[1]
  stoichiometry N: 2

## CGCCATGCTGATCCGTGTGGTGTGTGTGGG (ssDNA) [IR700-Tel30G]
[2]
  IC50: 0.89 nM
[3]
  IC50: 31.6 nM

## GTGTGGGTGTGGTGTGGGTGTGGTGTGGGTGTGTGGGTGTGGTGTGGGTG (ssDNA) [Tel50G]
[4]
  binding result: binds
[5]
  binding result: binds
